# Measurements taken from publication PMC4785722 (Journal of molecular biology, 2009).
# Molecular target: the molecule itself
# Experiment: native MS
protein,measurement,value
bacteriophage MS2 coat protein dimer (natural protein) ASNFTQFVLVDNGGTGDVTVAPSNFANGVAEWISSNSRSQAYKVTCSVRQSSAQNRKYTIKVEVPKVATQTVGGVELPVAAWRSYLNMELTIPIFATNSDCELIVKAMQGLLKDGNPIPSAIAANSGIY,stoichiometry N,10 CP2 dimers
